Reference: publication PMC9728370, “Multiple Tolerances and Dye Decolorization Ability of a Novel Laccase Identified from Staphylococcus Haemolyticus” (Journal of Microbiology and Biotechnology, 2020)

Substrate: CCn1c(=NN=c2sc3cc(S(=O)(=O)O)ccc3n2CC)sc2cc(S(=O)(=O)O)ccc21
Assay: purified protein
Format: biochemical, Staphylococcus haemolyticus
Conditions: 100 mM sodium acetate pH 4.5, 30°C, ABTS 50-1,000 μM, 5.21 mg/l enzyme

B1: Mco (Staphylococcus haemolyticus) (protein)
chain: MYNKVFTILIIIFSIIIIASNDTFAESKNDMMNMKEDKKNTMDMTNMKHHDERKKLNSSQGKNEIIFPEVAESKKDNNGYKNYTLKAQKGKTEFYKNNFSNTLGYNGNLLGPTLKLKKGDKVKIKLINNLDENTTFHWHGLEVNGKVDGGPSQVIKPGKEKTIKFEVNQDSATLWYHPHPSPNTAKQVYNGLSGLLYIEDSKKNNYPSNYGKNDLPIIIQDKTFVSKKLNYSKTKDEDGTQGDTVLVNGIVNPKLTAKEEKIRLRLLNGSNARDLNLKLSNNQSFEYIASDGGQLKNAKKLKEINLAPSERKEIVIDLSKMKGEKVSLVDNDKTVILPISNKEKSSNKSNTPKVSKKIKLEGMNDNVTINGNKFDPNRIDFTQKLNQKEVWEIENVKDKMGGMKHPFHIHGTQFKVLSVDGEKPPKDMRGKKDVISLEPGQKAKIEVVFKNTGTYMFHCHILEHEDNGMMGQIKVTN
notes: expressed in E. coli pG-KJE8/BL21
**Q.** Which results are given for B1?
**A.** Km: 139.8 µM; kcat: 6.87 s⁻¹
